Drawing on US20240409906, “INTEGRASES, LANDING PAD ARCHITECTURES, AND ENGINEERED CELLS COMPRISING THE SAME” (Asimov Inc., published 2024), this text covers binding signal for 5 molecules.

Common to all, as to test: cell_activity; attB x attP EGFP inversion reporter, HEK293FT
For one data set, the target named is T1, Int34 (Staphylococcus lugdunensis HKU09-01).
T1 chain: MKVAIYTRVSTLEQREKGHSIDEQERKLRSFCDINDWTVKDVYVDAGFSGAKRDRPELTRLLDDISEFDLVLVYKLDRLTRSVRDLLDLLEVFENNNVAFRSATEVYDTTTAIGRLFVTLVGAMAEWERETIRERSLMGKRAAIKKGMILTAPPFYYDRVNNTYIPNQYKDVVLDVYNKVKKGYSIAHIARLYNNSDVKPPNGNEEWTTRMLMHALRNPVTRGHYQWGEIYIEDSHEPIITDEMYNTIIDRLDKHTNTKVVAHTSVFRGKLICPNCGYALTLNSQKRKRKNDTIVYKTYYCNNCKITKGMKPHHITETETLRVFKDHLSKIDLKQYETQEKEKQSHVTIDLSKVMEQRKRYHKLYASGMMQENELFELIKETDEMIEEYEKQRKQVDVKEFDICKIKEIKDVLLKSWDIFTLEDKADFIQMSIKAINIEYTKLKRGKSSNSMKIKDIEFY
The following applies: tags: C-terminal GS linker-SV40 NLS; chain copies: 4.

The target of a further data set is T2, Int27 (Lactococcus lactis subsp. lactis CV56).
T2 chain: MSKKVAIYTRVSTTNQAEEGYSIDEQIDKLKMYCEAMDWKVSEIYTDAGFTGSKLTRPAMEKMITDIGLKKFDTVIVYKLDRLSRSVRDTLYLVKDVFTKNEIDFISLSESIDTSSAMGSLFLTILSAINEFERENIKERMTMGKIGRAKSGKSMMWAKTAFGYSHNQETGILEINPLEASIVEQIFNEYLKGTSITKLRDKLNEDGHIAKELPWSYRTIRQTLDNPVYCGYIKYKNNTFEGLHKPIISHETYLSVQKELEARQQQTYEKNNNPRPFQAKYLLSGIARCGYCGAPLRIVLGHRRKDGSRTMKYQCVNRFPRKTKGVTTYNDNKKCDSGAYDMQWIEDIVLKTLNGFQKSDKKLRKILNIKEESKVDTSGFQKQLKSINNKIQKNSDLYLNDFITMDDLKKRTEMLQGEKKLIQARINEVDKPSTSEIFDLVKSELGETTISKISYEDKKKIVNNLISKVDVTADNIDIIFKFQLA
The note with it: tags: C-terminal GS linker-SV40 NLS.

For the next data set, the target named is T3, Int7 (Geobacillus sp. Y412MC61).
T3 chain: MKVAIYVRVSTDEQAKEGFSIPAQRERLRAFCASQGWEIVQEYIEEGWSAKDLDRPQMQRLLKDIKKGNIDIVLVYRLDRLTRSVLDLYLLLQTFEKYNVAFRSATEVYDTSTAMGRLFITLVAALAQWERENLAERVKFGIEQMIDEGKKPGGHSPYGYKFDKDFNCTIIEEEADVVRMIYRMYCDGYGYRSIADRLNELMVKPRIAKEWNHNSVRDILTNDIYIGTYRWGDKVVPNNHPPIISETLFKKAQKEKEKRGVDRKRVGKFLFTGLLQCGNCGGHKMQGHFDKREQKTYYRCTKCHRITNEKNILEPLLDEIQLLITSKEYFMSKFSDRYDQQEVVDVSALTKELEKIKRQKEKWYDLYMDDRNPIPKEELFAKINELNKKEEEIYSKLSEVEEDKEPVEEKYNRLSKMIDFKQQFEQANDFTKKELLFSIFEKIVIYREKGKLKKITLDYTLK
The note with it: tags: C-terminal GS linker-SV40 NLS.

B1: Int34 attB (dsDNA)
DNA 1: AATCTGCAAACATGTATGGCGGTACATGTATCAACATTGGTTGTATTCCTACAAAGACACTCAT
DNA 2: ATGAGTGTCTTTGTAGGAATACAACCAATGTTGATACATGTACCGCCATACATGTTTGCAGATT
On to B1, for which, in the data set with Int34, the binding signal is 0.408 fraction of Bxb1.

B2: Int27 attB (dsDNA)
DNA 1: AATACTAATAATAGCTAGTACAATTAACATCTCTATCAAAGTAAAAGCTTTTAGCTCTTTCT
DNA 2: AGAAAGAGCTAAAAGCTTTTACTTTGATAGAGATGTTAATTGTACTAGCTATTATTAGTATT
For the molecule B2, in the data set with Int27, the binding signal was 2.2 fraction of Bxb1.

B3: Int7 attB (dsDNA)
DNA 1: AGACGAGAAACGTTCCGTCCGTCTGGGTCAGTTGGGCAAAGTTGATGACCGGGTCGTCCGTT
DNA 2: AACGGACGACCCGGTCATCAACTTTGCCCAACTGACCCAGACGGACGGAACGTTTCTCGTCT
Regarding B3, the binding signal with Int7 is 0.096 fraction of Bxb1.

B4: Int7 attP (dsDNA)
DNA 1: GTGTTATAAACCTGTGTGAGAGTTAAGTTTACATGCCTAACCTTAACTTTTACGCAGGTTCAGCTT
DNA 2: AAGCTGAACCTGCGTAAAAGTTAAGGTTAGGCATGTAAACTTAACTCTCACACAGGTTTATAACAC
Consider B4, for which the binding signal in the data set with Int7 was 0.096 fraction of Bxb1.

B5: Int34 attP (dsDNA)
DNA 1: ATTTTTGTACGGAAGTAGATACTATCTTTCAATATCCATGTTACTTAGTGCCATACAAAAA
DNA 2: TTTTTGTATGGCACTAAGTAACATGGATATTGAAAGATAGTATCTACTTCCGTACAAAAAT
Turning to B5, in the data set with Int34, the binding signal was 0.408 fraction of Bxb1.
